Experiment [1] concerns HUVECs. Kind of experiment: Endothelial cell proliferation (phospho-histone H3, neutral red, EdU flow cytometry). The experiment is classed as cell-based, human. As for the experimental part: Sub-confluent HUVECs were cultured overnight in starvation medium (EBM2-1% FBS) in the presence or absence of 60 ng/ml DAND5, followed by VEGF stimulation for 1 hour. HUVECs were subjected with a pulse of 5-ethynyl-2′-deoxyuridine (EdU) for 1 hour, and flow cytometry analysis of EdU incorporation was performed as previously described.
The effects of DAND5 on EC proliferation were assessed by treating sub-confluent HUVECs with complete EC medium for 18 hours with DAND5. Cell mitosis was measured by evaluating the proportion phospho-histone H3 (PH3)-positive ECs following DAND5 treatment.

The test system of experiment [2] is pathological retinal neovascularization. Kind of experiment: Oxygen-induced retinopathy (OIR). It is filed as in vivo, mouse. As for the experimental part:
C57BL/6J mouse pups at postnatal day (P)7 and their fostering mothers (CD1, Charles River) were submitted to 75% oxygen in oxycycler chamber for 5 days. Pups were then returned to normoxia at P12 and administered 100 ng of recombinant human DAND5 intravitreally or similar volume of vehicle in the contralateral eye. Eyes were enucleated at P17 and processed for immunostaining. Ocular globes were initially fixed for 15 min in 4% paraformaldehyde (PFA). Retinas or choroids were collected after eyes dissection in PBS and blocked 1 h in PBS 3% BSA 0.1% Triton X-100TM. Fixation was prolonged in 1% PFA overnight for choroid extraction or eyes sectioning. Prior to sectioning, eyes were maintained in sucrose gradients (10-30%), cryo-preserved in a matrix gel and sliced in 14 μm sections on a cryostat (LeicaTM C[…]). Staining with either FITC-labeled isolectin GS 1B4 (Life technologies corporation), rhodamine phalloidin (Cedarlane Laboratories), phospho-histone H3 (Abcam), Collagen IV (Abcam) or cleaved caspase-3 (Cell Signaling) antibodies were performed on whole and/or sectioned retinas/choroids. Retinas and choroids were then mounted in fluoromount aqueous medium (Sigma-Aldrich). Quantitative analysis of tufts, vaso-obliterated or vessel areas were performed using imageJ/Swift_NVTM as previously described (1). Neovascular tuft formation was quantified by comparing the number of pixels in the affected areas with the total number of pixels in the retina. The avascular area in the retina was measured in the same way using an anti-DAND5/COCO polyclonal goat IgG antibody (AF3047, R&D systems). The effects of DAND5 on postnatal developmental angiogenesis led us to evaluate its effects on pathological angiogenesis by subjecting mouse pups to Oxygen-induced Retinopathy (OIR). Briefly, P7 pups were placed in 75% oxygen for 5 days, leading to vaso-obliteration of the retinal vascular plexus. At P12, pups were returned to room air, which stimulates retinal angiogenesis, and leads to the formation of a pathological vascular retinal network characterized by neovascular tufts (FIG. 5A).

Experiment [3] relates to mitochondrial metabolism in HUVECs. Put plainly: NAD+/NADH cycling, ATP, glucose and lactate assays in HUVECs. The experiment is classed as cell-based, human. How it is done: HUVECs plated into 100 mm dishes were treated with COCO for various time points. NAD+ and NADH were extracted using ice cold alkali (0.5M NaOH, 1 mM EDTA) and acidic buffers (0.1M HCl) respectively. Extracts were heated at 60° C. for 30 min and buffers were neutralized with either the NADH (100 mM Tris-HCl pH 8.1, 0.05M HCl) or NAD+(0.4M Tris) neutralization buffers. To attain measurable quantities of NAD+ or NADH, an amplifying cycling assay was performed. Extracts and NAD+ standards were incubated with cycling reagent (67 mM Tris-HCl pH 8, 200 mM EtOH, 1.3 mM beta-mercaptoethanol, 0.01% BSA, 2 mM oxaloacetic acid, 0.5 μg/mL malate dehydrogenase, 5 μg/mL alcohol dehydrogenase) for 1 hour at room temperature. All samples were heated for 5 min at 100 C to stop enzymatic reactions then cooled on ice. For detection, extracts were incubated in an indicator buffer (50 mM 2-amino-2-methyl-propanol pH 9.9, 200 μM NAD+, 10 mM glutamate, 0.04% BSA, 5 μg/mL malate dehydrogenase, 2 μg/mL glutamate oxaloacetate transaminase) for 10 min at room temperature. Then 100 μL if sample was transferred to a black 96-well plate. Fluorescence was detected using a plate reader (TECAN) at an excitation of 365 nm and emission of 460 nm. Standard curves were generated and the concentration of NAD+ and NADH were calculated from the standard curve (references: Kato T., et al. Analytical Biochemistry 53, 86-97 (1973); Lin S., et al, JBC. Vol 276, No. 38, 36000-36007 (2001)).
ATP detection: HUVECs were plated into 100 mm dishes and treated with COCO for various time points. ATP was measured by luminescence (ATP Detection Assay Kit; Cayman Chemicals). Metabolite measurements: HUVECs were cultured for up to 48 hours in the presence or absence of COCO. Culture media was collected at 1 h, 3 h, 6 h, 12 h, 24 h and 48 h, centrifuged at 12000 rpm for 5 min, aliquoted and stored at −80 C. Media was analyzed for glucose concentration using a BioProfiler 400 Analyzer (BioNova). For measurements of lactate, the culture media was analyzed using the Lactate Colorimetric/Fluorometric Assay Kit (BioVision, K607) as per the manufacturer's instructions.
We exposed or not HUVECs to recombinant DAND5 and measured the concentration of free radicals using DCFDA and MitoSoxRed™. […] To further test this, we measure the NAD+/NADH ratio in cells treated or not with DAND5. […] Likewise, glucose uptake was reduced and lactate levels were increased in DAND5-treated HUVECs after 1 h (FIG. 8E, lower panel).

One molecule from US20220265772A1, “USES OF DAN FAMILY BMP ANTAGONISTS FOR INHIBITING OCULAR NEOVASCULARIZATION AND TREATING OCULAR CONDITIONS” (9636137 Canada Inc., priority 2019, published 2022) can be followed below.

B1: DAND5: human recombinant DAND5/COCO biologically active fragment produced in E. coli, predicted 18.2 kDa monomer, R&D systems 3047-CC-050 (protein)
chain: MRPEPQSPRPQSWAAANQTWALGPGALPPLVPASALGSWKAFLGLQKARQLGMGRLQRGQDEVAAVTLPLNPQEVIQGMCKAVPFVQVFSRPGCSAIRLRNHLCFGHCSSLYIPGSDPTPLVLCNSCMPARKRWAPVVLWCLTGSSASRRRVKISTMLIEGCHCSPKA
In the case of B1, the EdU incorporation entry in experiment [1] (HUVECs, 60 ng/ml DAND5 overnight, VEGF stimulation) is “reduced Edu incorporation in response to VEGF stimulation”. Besides, the “proliferation of cultured ECs, cell numbers by neutral red incorporation” value in experiment [1] (HUVECs, 6 days) is listed as “prevented the proliferation of cultured ECs”. Moreover, the “phospho-histone H3 (PH3) staining, mitotic index” value in experiment [1] (sub-confluent HUVECs, complete EC medium, 18 hours) is given as “significant decrease in PH3 staining”. In experiment [2], the “effect on neovascularization compared with Flt1 Fc” value is reported as “stronger effect on neovascularization than Flt1 Fc”. In addition, the pathological neovascularization entry in experiment [2] (100 ng intravitreal at P12, retinas at P17) was “significantly reduced pathological neovascularization”. Besides, in experiment [2] (injection at P12, P17), the “revascularization of the central part of the retina” value is given as “not affected”. In experiment [2] (injection at P12, P17, compared to PBS), the “amount and size of neovascular tufts” value is listed as “significantly reduced”. Further, in experiment [3] (HUVECs exposed to DAND5), the “NAD+/NADH ratio” value is “decreased”. Besides, in experiment [3] (HUVECs, after 1 h), the glucose uptake entry is “reduced” and the lactate levels entry is recorded as “increased”. The ATP levels result in experiment [3] (HUVECs, after 1 h of treatment) is listed as “reduced”. Moreover, the ATP levels result in experiment [3] (HUVECs, at 1, 6 and 24 hours) is “reduced”.
